Measured values from patent US20070286858A1.

Legend:
[1] = biological target: soluble human streptavidin-tagged RAGE (human) (UniProt Q15109); assay: BIACORE capture, hRAGE-SA over captured antibody, 1:1 Langmuir global fit, row Average
[2] = biological target: soluble human streptavidin-tagged RAGE (human) (UniProt Q15109); assay: BIACORE capture assay, antibody on CM5 chip, hRAGE-SA 0-100 nM in solution
[3] = biological target: human RAGE-Fc fusion protein (human) (UniProt Q15109); assay: ligand competition ELISA, panel Blocks hRAGE-Fc interaction with A-beta; blocked ligand amyloid beta 1-42 peptide
[4] = biological target: murine RAGE-strep tag fusion protein (mouse) (UniProt Q62151); assay: BIACORE capture, SA-Mu RAGE over captured antibody, 1:1 Langmuir global fit, FC4
[5] = biological target: human RAGE-Fc fusion protein (human) (UniProt Q15109); assay: antibody competition ELISA on hRAGE-Fc; competitor biotinylated XT-M4
[6] = biological target: human RAGE-Fc fusion protein (human) (UniProt Q15109); assay: ligand competition ELISA, panel Blocks hRAGE-Fc interaction with S100-A; blocked ligand S100-A
hLox1-Fc (human) = hLox1-Fc (human) (UniProt P78380); assay: direct binding ELISA, receptor coated at 1 µg/ml, antibody at 20 µg/ml
mLox1-Fc (mouse) = mLox1-Fc (mouse) (UniProt Q9EQ09); assay: as above
rhNCAM-1 (human) = rhNCAM-1 (human) (UniProt P13591); assay: as above
[7] = biological target: rhTLR4 (C-terminal His tag) (human) (UniProt O00206); assay: as above
[8] = biological target: human RAGE-Fc fusion protein (human) (UniProt Q15109); assay: as above
rhICAM-1-Fc (human) = rhICAM-1-Fc (human) (UniProt P05362); assay: as above
rhB7-H1-Fc (human) = rhB7-H1-Fc (human) (UniProt Q9NZQ7); assay: as above
rhVCAM-1 (human) = rhVCAM-1 (human) (UniProt P19320); assay: as above
[9] = biological target: human RAGE-Fc fusion protein (human) (UniProt Q15109); assay: ligand competition ELISA, panel Blocks hRAGE-Fc interaction with HMGB1; blocked ligand HMGB1
[10] = biological target: soluble human streptavidin-tagged RAGE (human) (UniProt Q15109); assay: BIACORE capture, hRAGE-SA over captured antibody, 1:1 Langmuir global fit, FC3
[11] = biological target: murine RAGE-strep tag fusion protein (mouse) (UniProt Q62151); assay: BIACORE capture, SA-Mu RAGE over captured antibody, 1:1 Langmuir global fit, FC3
[12] = biological target: murine RAGE-strep tag fusion protein (mouse) (UniProt Q62151); assay: BIACORE capture, SA-Mu RAGE over captured antibody, 1:1 Langmuir global fit, FC2
[13] = biological target: human RAGE-Fc fusion protein (human) (UniProt Q15109); assay: ligand competition ELISA, panel Blocks hRAGE-Fc interaction with S100-B; blocked ligand S100-B
[14] = biological target: human RAGE, full length (human) (UniProt Q15109); assay: cell-based ELISA, 293 cells transfected with human RAGE
[15] = biological target: cynomolgus monkey RAGE (cynomolgus monkey (Macaca fascicularis)); assay: cell-based ELISA, 293 cells transfected with cynomolgus monkey RAGE
[16] = biological target: murine RAGE-strep tag fusion protein (mouse) (UniProt Q62151); assay: BIACORE capture, SA-Mu RAGE over captured antibody, 1:1 Langmuir global fit, row Average

Chain of murine RAGE-strep tag fusion protein (mouse) (Q62151 other isoform, or with tags, fused parts or gaps): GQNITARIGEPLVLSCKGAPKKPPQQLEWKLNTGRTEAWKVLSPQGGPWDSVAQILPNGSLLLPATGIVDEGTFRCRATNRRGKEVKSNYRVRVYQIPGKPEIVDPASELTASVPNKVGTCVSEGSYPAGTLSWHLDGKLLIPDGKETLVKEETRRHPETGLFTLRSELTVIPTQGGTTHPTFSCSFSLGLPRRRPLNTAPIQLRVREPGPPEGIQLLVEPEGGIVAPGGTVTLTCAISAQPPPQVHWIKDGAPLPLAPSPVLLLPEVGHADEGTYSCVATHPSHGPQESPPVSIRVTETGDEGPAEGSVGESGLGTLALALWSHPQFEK
Chain of rhNCAM-1 (human) (P13591 other isoform, or with tags, fused parts or gaps limits assumed): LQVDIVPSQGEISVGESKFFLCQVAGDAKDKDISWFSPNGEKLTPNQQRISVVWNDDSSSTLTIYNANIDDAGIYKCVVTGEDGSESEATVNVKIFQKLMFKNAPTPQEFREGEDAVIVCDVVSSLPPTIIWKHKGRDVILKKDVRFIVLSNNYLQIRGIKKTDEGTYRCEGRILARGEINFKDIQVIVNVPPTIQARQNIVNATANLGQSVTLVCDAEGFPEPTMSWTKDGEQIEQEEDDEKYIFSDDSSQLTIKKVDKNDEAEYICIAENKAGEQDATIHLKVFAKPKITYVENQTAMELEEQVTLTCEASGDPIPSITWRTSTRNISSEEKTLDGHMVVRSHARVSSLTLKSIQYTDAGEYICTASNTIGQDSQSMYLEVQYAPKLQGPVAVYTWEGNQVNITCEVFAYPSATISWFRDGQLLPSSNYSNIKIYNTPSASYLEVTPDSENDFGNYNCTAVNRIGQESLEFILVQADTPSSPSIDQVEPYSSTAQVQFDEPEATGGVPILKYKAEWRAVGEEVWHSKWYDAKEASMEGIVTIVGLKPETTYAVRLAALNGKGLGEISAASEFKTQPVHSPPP
Chain of mLox1-Fc (mouse) (Q9EQ09 60-363): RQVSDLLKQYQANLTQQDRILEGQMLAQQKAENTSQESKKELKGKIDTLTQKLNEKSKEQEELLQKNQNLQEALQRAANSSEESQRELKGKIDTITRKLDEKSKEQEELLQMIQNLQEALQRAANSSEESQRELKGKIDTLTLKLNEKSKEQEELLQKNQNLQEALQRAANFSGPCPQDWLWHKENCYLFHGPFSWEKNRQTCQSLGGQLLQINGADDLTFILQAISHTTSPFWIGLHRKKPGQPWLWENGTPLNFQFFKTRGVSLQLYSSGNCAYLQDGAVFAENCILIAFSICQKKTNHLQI
Chain of rhTLR4 (C-terminal His tag) (human) (O00206 24-631 limits assumed): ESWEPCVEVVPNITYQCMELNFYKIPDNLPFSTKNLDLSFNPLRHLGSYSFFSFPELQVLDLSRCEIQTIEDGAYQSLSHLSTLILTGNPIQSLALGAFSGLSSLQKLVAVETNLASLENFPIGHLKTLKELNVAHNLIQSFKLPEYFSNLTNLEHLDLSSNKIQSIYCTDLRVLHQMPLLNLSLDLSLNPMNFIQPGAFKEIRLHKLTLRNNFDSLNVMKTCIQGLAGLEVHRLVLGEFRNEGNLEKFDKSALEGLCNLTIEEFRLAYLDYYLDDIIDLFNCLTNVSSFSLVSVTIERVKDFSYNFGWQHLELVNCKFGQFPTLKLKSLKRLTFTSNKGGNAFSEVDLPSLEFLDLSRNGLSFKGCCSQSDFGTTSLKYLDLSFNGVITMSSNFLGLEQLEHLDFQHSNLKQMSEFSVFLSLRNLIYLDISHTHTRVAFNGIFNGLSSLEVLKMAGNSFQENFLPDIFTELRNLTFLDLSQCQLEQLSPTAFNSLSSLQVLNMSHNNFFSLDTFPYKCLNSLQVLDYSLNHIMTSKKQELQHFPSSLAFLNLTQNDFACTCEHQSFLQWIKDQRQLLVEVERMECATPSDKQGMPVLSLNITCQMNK
Chain of rhVCAM-1 (human) (P19320 25-698 limits assumed): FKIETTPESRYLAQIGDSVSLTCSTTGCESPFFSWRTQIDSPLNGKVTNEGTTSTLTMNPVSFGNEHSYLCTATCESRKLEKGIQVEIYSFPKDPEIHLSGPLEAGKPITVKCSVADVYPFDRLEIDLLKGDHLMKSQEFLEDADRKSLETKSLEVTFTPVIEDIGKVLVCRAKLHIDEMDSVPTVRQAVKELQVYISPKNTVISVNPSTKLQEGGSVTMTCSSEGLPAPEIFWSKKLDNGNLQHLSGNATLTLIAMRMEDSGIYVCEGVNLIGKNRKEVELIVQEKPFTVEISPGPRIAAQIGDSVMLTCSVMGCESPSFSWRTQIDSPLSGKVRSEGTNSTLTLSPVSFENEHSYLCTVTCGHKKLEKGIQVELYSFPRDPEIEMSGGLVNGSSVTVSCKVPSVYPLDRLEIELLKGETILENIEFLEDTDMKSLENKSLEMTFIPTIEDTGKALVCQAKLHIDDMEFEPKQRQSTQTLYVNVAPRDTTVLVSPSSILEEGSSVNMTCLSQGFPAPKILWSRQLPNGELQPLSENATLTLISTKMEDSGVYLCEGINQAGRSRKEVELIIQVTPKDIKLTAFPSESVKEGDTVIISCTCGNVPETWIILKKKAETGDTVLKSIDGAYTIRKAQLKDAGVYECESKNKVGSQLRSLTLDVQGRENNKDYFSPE
Chain of rhICAM-1-Fc (human) (P05362 28-480): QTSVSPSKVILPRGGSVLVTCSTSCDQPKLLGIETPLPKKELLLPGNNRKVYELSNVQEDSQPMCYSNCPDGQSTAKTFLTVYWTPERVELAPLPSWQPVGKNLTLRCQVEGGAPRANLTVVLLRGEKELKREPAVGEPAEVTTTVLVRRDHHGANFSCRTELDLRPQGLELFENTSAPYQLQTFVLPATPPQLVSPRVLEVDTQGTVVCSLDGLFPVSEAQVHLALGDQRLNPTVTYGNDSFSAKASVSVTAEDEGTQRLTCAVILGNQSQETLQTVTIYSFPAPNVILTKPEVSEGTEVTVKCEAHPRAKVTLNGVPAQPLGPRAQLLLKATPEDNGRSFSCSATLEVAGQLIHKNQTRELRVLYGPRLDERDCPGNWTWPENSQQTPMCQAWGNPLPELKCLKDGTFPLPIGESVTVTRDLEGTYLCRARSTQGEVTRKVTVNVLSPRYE
Chain of rhB7-H1-Fc (human) (Q9NZQ7 19-239): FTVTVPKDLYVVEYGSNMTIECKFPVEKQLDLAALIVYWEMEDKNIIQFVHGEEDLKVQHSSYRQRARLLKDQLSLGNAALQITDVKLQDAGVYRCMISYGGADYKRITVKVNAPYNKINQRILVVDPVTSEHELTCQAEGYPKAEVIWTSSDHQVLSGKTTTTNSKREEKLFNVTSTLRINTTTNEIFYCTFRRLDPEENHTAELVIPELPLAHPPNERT

Kd [1]: 7.91 nM
Ka [2]: 1.77e+08 M⁻¹
Kd [2]: 5.66 nM
IC50 (read off the curve) [3]: 0.2 µg/mL
Kd [4]: 2 nM
IC50 (read off the curve) [5]: 0.4 µg/mL
IC50 (read off the curve) [6]: 0.09 µg/mL
OD450 (hLox1-Fc (human)): 0.017
OD450 (mLox1-Fc (mouse)): 0.01
OD450 (rhNCAM-1 (human)): 0.006
OD450 [7]: 0
OD450 [8]: 3.8
OD450 (rhICAM-1-Fc (human)): 0.004
OD450 (rhB7-H1-Fc (human)): 0.003
OD450 (rhVCAM-1 (human)): 0.004
IC50 (read off the curve) [9]: 0.1 µg/mL
Kd [10]: 7.33 nM
Kd [11]: 1.9 nM
Kd [12]: 1.9 nM
IC50 (read off the curve) [13]: 0.08 µg/mL
EC50 [14]: 0.8 nM
EC50 [15]: 1.66 nM
Kd [16]: 1.9 nM
Substance: chimeric antibody XT-M4 (from UniProt P01857 1-330)
